Like-named read-outs stand apart in the source and are kept apart here.
T1: IL-36R naturally expressed on OVCAR8 cells and on normal human epidermal keratinocytes (NHK cells) (human, UniProt Q9HB29 20-575)
T1 sequence (looked up): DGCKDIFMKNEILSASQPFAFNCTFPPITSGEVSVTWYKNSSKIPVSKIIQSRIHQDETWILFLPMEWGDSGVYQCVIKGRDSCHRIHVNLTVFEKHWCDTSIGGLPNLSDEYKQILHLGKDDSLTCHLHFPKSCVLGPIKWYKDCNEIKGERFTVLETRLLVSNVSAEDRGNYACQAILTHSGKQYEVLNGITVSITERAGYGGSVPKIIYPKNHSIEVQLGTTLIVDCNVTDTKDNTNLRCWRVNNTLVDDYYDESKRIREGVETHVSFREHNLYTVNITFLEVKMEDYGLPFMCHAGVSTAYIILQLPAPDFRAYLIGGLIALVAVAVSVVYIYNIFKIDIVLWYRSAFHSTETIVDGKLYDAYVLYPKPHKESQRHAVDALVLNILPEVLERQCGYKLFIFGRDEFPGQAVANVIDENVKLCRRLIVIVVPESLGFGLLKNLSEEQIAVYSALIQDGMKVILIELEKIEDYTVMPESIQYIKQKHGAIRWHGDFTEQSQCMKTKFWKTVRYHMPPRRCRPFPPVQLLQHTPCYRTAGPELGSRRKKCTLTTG

T2: Human IL-1Rrp2/IL-1R6 protein, His Tag (ACROBiosystems, IL2-H52H6) (human, UniProt Q9HB29 20-335)
T2 construct: Bought protein; the soluble protein is likely only the extracellular part; also called hIL-36R; human IL36R antigen; not shown: His tag
T2 sequence: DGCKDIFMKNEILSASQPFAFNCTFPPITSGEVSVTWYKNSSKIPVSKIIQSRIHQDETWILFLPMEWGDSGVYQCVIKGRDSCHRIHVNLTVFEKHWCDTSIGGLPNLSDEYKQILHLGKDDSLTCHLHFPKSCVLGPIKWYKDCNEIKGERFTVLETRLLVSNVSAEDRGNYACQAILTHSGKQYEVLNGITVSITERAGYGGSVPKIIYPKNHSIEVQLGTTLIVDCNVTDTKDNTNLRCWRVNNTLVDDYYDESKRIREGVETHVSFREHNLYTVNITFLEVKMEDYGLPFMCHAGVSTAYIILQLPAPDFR

T3: human IL-36R overexpressed on 293T-hIL36R-NFκB cells (human, UniProt Q9HB29 20-575)
T3 construct: Entry includes the signal peptide; also called IL1RL2; IL-1Rrp2
T3 sequence: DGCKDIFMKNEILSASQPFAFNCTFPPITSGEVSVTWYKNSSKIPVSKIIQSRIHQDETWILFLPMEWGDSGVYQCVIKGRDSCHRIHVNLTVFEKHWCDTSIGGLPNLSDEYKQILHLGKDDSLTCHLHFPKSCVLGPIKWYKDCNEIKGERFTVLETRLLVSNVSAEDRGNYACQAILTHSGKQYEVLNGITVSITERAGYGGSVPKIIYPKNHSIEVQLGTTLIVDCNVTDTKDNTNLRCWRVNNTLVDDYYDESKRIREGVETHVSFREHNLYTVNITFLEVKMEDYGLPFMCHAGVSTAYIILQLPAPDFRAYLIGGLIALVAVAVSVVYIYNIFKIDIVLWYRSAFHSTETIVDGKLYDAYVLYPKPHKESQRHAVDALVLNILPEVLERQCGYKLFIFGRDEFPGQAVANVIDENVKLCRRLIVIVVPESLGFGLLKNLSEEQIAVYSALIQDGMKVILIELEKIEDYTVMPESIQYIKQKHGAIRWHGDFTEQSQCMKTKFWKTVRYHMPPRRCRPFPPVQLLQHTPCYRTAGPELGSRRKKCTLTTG

B1: BI655130 (antibody, human IgG1, kappa, L234A L235A)
heavy: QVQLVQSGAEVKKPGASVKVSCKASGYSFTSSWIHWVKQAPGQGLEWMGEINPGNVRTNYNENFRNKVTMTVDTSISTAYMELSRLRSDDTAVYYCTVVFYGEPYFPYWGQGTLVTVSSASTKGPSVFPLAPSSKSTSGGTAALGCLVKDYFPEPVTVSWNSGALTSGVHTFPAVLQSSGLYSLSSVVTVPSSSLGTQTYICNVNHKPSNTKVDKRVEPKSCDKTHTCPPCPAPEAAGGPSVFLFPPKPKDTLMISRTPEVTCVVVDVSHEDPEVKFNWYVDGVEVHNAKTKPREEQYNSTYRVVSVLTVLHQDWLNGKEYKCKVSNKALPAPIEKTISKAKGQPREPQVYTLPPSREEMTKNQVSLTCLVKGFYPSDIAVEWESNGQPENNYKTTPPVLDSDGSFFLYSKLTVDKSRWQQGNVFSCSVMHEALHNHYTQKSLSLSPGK
light: QIVLTQSPGTLSLSPGERATMTCTASSSVSSSYFHWYQQKPGQAPRLWIYRTSRLASGVPDRFSGSGSGTDFTLTISRLEPEDAATYYCHQFHRSPLTFGAGTKLEIKRTVAAPSVFIFPPSDEQLKSGTASVVCLLNNFYPREAKVQWKVDNALQSGNSQESVTEQDSKDSTYSLSSTLTLSKADYEKHKVYACEVTHQGLSSPVTKSFNRGEC
notes: also called Spesolimab
B2: hz72C1-2.2 (antibody, human IgG4 S228P, kappa)
heavy: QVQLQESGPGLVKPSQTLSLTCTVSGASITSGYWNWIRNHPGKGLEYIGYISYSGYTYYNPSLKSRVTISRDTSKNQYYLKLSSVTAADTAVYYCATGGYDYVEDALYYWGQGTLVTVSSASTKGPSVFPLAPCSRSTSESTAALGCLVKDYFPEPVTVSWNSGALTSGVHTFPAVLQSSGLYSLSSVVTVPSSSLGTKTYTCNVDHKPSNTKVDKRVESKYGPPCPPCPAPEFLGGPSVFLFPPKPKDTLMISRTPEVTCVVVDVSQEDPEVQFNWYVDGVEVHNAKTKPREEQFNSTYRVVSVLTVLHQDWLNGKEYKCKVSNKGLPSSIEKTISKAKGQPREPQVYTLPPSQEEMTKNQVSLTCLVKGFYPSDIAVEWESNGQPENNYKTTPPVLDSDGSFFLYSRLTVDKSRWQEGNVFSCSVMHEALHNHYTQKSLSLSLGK
light: DIQMTQSPSSLSASVGDRVTITCRASSNVRYMYWYQQKPGKAPKLWIYLTSNLASGVPSRFSGSGSGTSYTLTISSLQPEDFATYYCQQYTTSPYTFGQGTKLEIKRTVAAPSVFIFPPSDEQLKSGTASVVCLLNNFYPREAKVQWKVDNALQSGNSQESVTEQDSKDSTYSLSSTLTLSKADYEKHKVYACEVTHQGLSSPVTKSFNRGEC
notes: Humanized, human IgG4 / kappa
B3: hz72C1-2.3 (antibody, human IgG4 S228P, kappa)
heavy: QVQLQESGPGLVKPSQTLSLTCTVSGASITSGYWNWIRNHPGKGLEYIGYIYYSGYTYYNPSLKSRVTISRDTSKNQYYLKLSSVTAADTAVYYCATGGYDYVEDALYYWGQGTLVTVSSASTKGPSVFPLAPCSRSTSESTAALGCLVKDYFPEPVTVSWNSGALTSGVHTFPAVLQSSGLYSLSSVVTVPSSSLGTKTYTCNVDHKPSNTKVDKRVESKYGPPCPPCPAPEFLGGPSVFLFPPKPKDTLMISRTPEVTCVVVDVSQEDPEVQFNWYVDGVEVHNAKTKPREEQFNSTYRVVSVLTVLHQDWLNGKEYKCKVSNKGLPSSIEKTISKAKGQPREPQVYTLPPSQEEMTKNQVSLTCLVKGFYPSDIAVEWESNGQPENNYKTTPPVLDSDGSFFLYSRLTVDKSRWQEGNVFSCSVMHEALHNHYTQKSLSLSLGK
light: DIQMTQSPSSLSASVGDRVTITCRASSNVRYMYWYQQKPGKAPKLWIYLTSNLASGVPSRFSGSGSGTSYTLTISSLQPEDFATYYCQQYTTSPYTFGQGTKLEIKRTVAAPSVFIFPPSDEQLKSGTASVVCLLNNFYPREAKVQWKVDNALQSGNSQESVTEQDSKDSTYSLSSTLTLSKADYEKHKVYACEVTHQGLSSPVTKSFNRGEC
notes: Humanized, human IgG4 / kappa

Legend:
[1] = target: T1, IL-36R naturally expressed on OVCAR8 …; assay: cell-based or functional assay
[2] = target: T2, Human IL-1Rrp2/IL-1R6 protein, His Tag …; assay: BLI (ForteBio Octet), antibody on ProA sensor, 1:1 model
Description: (§1) The affinity of anti-IL-36R antibodies to CynoIL36R-ECD mFc and human IL-1Rrp2/IL-IR6 protein, His Tag (ACROBiosystems, IL2-H52H6) was measured by a ForteBio molecular interaction instrument. […] And then the biosensor was used to bind CynoIL36R-ECD mFc or human IL-1Rrp2/IL-1R6 protein, His Tag which was diluted by a gradient (the initial concentration was 200 nM, 2-fold gradient dilution), the response signals were detected in real time using a Fortebio molecular interaction instrument (SARTORIUS, octet red 96e), and association and dissociation curves were obtained. After the completion of dissociation in each cycle, the biosensor was regenerated for the next capture; the procedure was repeated until the affinity of the different anti-IL-36R antibodies for IL-36R was determined. The resulting data were analyzed by Fortebio Data Analysis 11.0 software in a 1:1 (Langmuir) binding model to determine kₐ (kₒₙ) and kd (koff) values, and the dissociation constant KD was calculated by KD=kd/kₐ. The detection method essentially followed the manufacturer's recommendations, and more information could be found at www.fortebio.com.
(§2) Affinity, binding and blocking assays for humanized antibodies hz72C1-1.1, hz72C1-1.2, hz72C1-1.3, hz72C1-2.1, hz72C1-2.2 and hz72C1-2.3 as well as hz84C4-1.1, hz84C4-1.2, hz84C4-1.3, hz84C4-1.4, hz84C4-1.5, hz84C4-2.1, hz84C4-2.2, hz84C4-2.3, hz84C4-2.4 and hz84C4-2.5 were performed according to the methods of Example 4, Example 5. Example 6, Example 7 and Example 8.

[3] = target: T3, human IL-36R overexpressed on …; assay: FACS on 293T-hIL36R-NFκB cells, ratio of MFI to background MFI
Description: After the cells was washed with PBS, the cells were resuspended with 100 μL of PBS and then the fluorescence signal was detected using a flow cytometer (BD, Accuri C6). […] The ratio was the ratio of mean fluorescence intensity (MFI) of the experimental group/the background MFI, and the resulting data were analyzed using GraphPad Prism.
as §2

[4] = target: T2, Human IL-1Rrp2/IL-1R6 protein, His Tag …; assay: BLI (ForteBio Octet), antibody on ProA sensor, 1:1 model; remark: listed apart in the source
Description: as §1, §2

[5] = target: T1, IL-36R naturally expressed on OVCAR8 …; assay: cell-based or functional assay; remark: listed apart in the source
[6] = target: T1, IL-36R naturally expressed on OVCAR8 …; assay: cell-based or functional assay; remark: listed apart in the source

Binder | IC50 (M); hIL36α; IL-8 production [1] [M] | IC50 (M); hIL36αβγ; IL-8 production [1] [M] | IC50 (M); hIL36β; IL-8 production [1] [M] | IC50 (M); hIL36γ; IL-8 production [1] [M] | Maximum inhibition rate %; hIL36α; IL-8 production [1] [%] | Maximum inhibition rate %; hIL36αβγ; IL-8 production [1] [%] | Maximum inhibition rate %; hIL36β; IL-8 production [1] [%] | Maximum inhibition rate %; hIL36γ; IL-8 production [1] [%] | Kd [2] [nM] | koff [2] [s⁻¹] | kon [2] [M⁻¹ s⁻¹] | EC50 [3] [nM] | IC50 (M); hIL36α; IL-8 production [5] [M] | IC50 (M); hIL36αβγ; IL-8 production [5] [M] | IC50 (M); hIL36β; IL-8 production [5] [M] | IC50 (M); hIL36γ; IL-8 production [5] [M] | Maximum inhibition rate %; hIL36α; IL-8 production [5] [%] | Maximum inhibition rate %; hIL36αβγ; IL-8 production [5] [%] | Maximum inhibition rate %; hIL36β; IL-8 production [5] [%] | Maximum inhibition rate %; hIL36γ; IL-8 production [5] [%] | further results
B1 | 4.34e-11 | 4.88e-11 | 1.57e-11 | 1.42e-11 | 99.8 | 99.9 | 99.7 | 99.7 | 0.245 | 1.57e-05 | 64100 | 5.13 | 1.26e-10 | 1.98e-10 | 3.03e-10 | 4.42e-11 | 106 | 98.9 | 101 | 105 | Kd [4]: 0.713 nM; koff [4]: 5.84e-05 s⁻¹; kon [4]: 81900 M⁻¹ s⁻¹; IC50 (M); hIL36α; IL-8 production [6]: 1.6e-11 M; IC50 (M); hIL36αβγ; IL-8 production [6]: 1.42e-11 M; IC50 (M); hIL36β; IL-8 production [6]: 2.45e-11 M; IC50 (M); hIL36γ; IL-8 production [6]: 8.12e-12 M; Maximum inhibition rate %; hIL36α; IL-8 production [6]: 99.6%; Maximum inhibition rate %; hIL36αβγ; IL-8 production [6]: 99.9%; Maximum inhibition rate %; hIL36β; IL-8 production [6]: 99.1%; Maximum inhibition rate %; hIL36γ; IL-8 production [6]: 100%
B2 | 1.94e-10 | 2.3e-10 | 1.45e-10 | 7.6e-11 | 98.5 | 97.1 | 98 | 97.7 | < 0.001 | < 1e-07 | 62400 | 17.6 | 2.45e-10 | 1.49e-09 | 1.1e-09 | 1.18e-09 | 97.3 | 85.3 | 82.5 | 89 | –
B3 | 2.17e-10 | 3.58e-10 | 1.67e-10 | 5.31e-11 | 98.1 | 95 | 97.9 | 97.7 | 0.177 | 1.12e-05 | 63300 | 20.2 | 1.8e-10 | 4.5e-09 | 2.67e-09 | 5.6e-10 | 82 | 80 | 78.3 | 90.8 | –
